From patent US20050142634

Tested on: modulator of non-genomic activity of nuclear receptors (MNAR)

Substance: cSrc
- cSrc enzymatic activity (acid denatured enolase as a substrate, [32P]-γATP, SDS-PAGE autoradiography): MNAR itself strongly stimulates cSrc enzymatic activity
